Here are results for 27 molecules from patent US20110143428A1 (Genentech, published 2011).

To fix the notation:
B1: anti-VEGF-C IgG VC4 (antibody, V domains shown)
VH: EVQLVESGGGLVQPGGSLRLSCAASGFTFTDNWIHWVRQAPGKGLEWVGVISPYSGATYYADSVKGRFTISADTSKNTAYLQMNSLRAEDTAVYYCARDADYDYAGWAFDYWGQGTLVTVSS
VL: DIQMTQSPSSLSASVGDRVTITCRASQDVSTAVAWYQQKPGKAPKLLIYSASFLYSGVPSRFSGSGSGTDFTLTISSLQPEDFATYYCQQSYTTPPTFGQGTKVEIK
notes: Only the six HVRs are tied to this clone; also called clone VC4
B2: VC4.4 (antibody, V domains shown)
VH: B1 VH with A100V, D103Y, G106W, F109L
VL: B1 VL
notes: also called clone VC4.4
B3: VC4.2 (antibody, V domains shown)
VH: B1 VH with D103A, G106W
VL: B1 VL
notes: also called clone VC4.2
B4: VC4.3 (antibody, V domains shown)
VH: B1 VH with D31Y, N32S, V50F, Y54G, S55V, A57Y, T58S
VL: B1 VL with S91T, T93R, T94I, P96Y
notes: also called clone VC4.3
B5: anti-VEGF-C IgG VC3 (antibody, V domains shown)
VH: EVQLVESGGGLVQPGGSLRLSCAASGFTFTNTDIHWVRQAPGKGLEWVAWISPSSGYTDYADSVKGRFTISADTSKNTAYLQMNSLRAEDTAVYYCARWRDYRFGGVMDYWGQGTLVTVSS
VL: B1 VL
notes: Only the six HVRs are tied to this clone; also called clone VC3
B6: anti-VEGF-C IgG VC1 (antibody, V domains shown)
VH: EVQLVESGGGLVQPGGSLRLSCAASGFTFSDSDIHWVRQAPGKGLEWVAWISPYSGYTDYADSVKGRFTISADTSKNTAYLQMNSLRAEDTAVYYCARLFEVIFDYWGQGTLVTVSS
VL: B1 VL
notes: Only the six HVRs are tied to this clone; also called clone VC1
B7: anti-VEGF-C antibody mVC4.5 (mIgG2a) (antibody, V domains shown)
VH: B1 VH with G49A, D103K, G106F
VL: DIQMTQSPSSLSASVGDRVTITCRASQDVSTAVAWYQQKPGKAPKLLIYSASFLYSGVPSRFSGSGSGTDFTLTISSLQPEDFATYYCQQSYTTPPTFGQGTKVEIKR
notes: VC4.5 variable domains on a murine IgG2a backbone; also called VC4.5 murine IgG2a form; murine backbone anti-VEGF-C antibody
B8: VC1.12 (antibody, V domains shown)
VH: B6 VH with S55V, Y57F, E101D
VL: B7 VL
notes: also called clone VC1.12
B9: VC1.11 (antibody, V domains shown)
VH: B6 VH with A97V, F100Y, E101D
VL: B1 VL
notes: also called clone VC1.11
B10: VC1.4 (antibody, V domains shown)
VH: B6 VH with A97V, E101G
VL: B1 VL
notes: also called clone VC1.4
B11: VC1.5 (antibody, V domains shown)
VH: B6 VH with F100W
VL: B1 VL
notes: also called clone VC1.5
B12: VC1.6 (antibody, V domains shown)
VH: B6 VH with A97V, E101D
VL: B1 VL
notes: also called clone VC1.6
B13: VC1.7 (antibody, V domains shown)
VH: B6 VH with E101D, V102I
VL: B1 VL
notes: also called clone VC1.7
B14: VC1.8 (antibody, V domains shown)
VH: B6 VH with A97T, E101T, V102I
VL: B1 VL
notes: also called clone VC1.8
B15: VC1.3 (antibody, V domains shown)
VH: B6 VH with A97V
VL: B1 VL
notes: also called clone VC1.3
B16: VC1.2 (antibody, V domains shown)
VH: B6 VH with V102I
VL: B1 VL
notes: also called clone VC1.2
B17: VC1.10 (antibody, V domains shown)
VH: B6 VH with A97V, E101G, V102I
VL: B1 VL
notes: also called clone VC1.10
B18: VC4.5Fab (Fab, V domains shown)
VH: B1 VH with G49A, D103K, G106F
VL: B7 VL
B19: VC1.12.6 (antibody, V domains shown)
VH: B6 VH with S55V, Y57F, E101D
VL: B1 VL with T93N
notes: also called clone VC1.12.6
B20: VC1.12.4 (antibody, V domains shown)
VH: B6 VH with S55V, Y57F, E101D
VL: B1 VL with T94S, P96T
notes: also called clone VC1.12.4
B21: VC1.12.9 (antibody, V domains shown)
VH: B6 VH with S55V, Y57F, E101D
VL: B1 VL with T94I
notes: also called clone VC1.12.9
B22: VC1.12.1 (antibody, V domains shown)
VH: B6 VH with S55V, Y57F, E101D
VL: B1 VL with T93N, T94I
notes: also called clone VC1.12.1
B23: VC1.12.2 (antibody, V domains shown)
VH: B6 VH with S55V, Y57F, E101D
VL: B1 VL with T93W, P96L
notes: also called clone VC1.12.2
B24: VC1.12.3 (antibody, V domains shown)
VH: B6 VH with S55V, Y57F, E101D
VL: B1 VL with S91T, T93A, T94I
notes: also called clone VC1.12.3
B25: VC1.12.10 (antibody, V domains shown)
VH: B6 VH with S55V, Y57F, E101D
VL: B1 VL with T93Y, T94S, P96L
notes: also called clone VC1.12.10
B26: VC1.12.8 (antibody, V domains shown)
VH: B6 VH with S55V, Y57F, E101D
VL: B1 VL with T93I
notes: also called clone VC1.12.8
B27: VC1.12.5 (antibody, V domains shown)
VH: B6 VH with S55V, Y57F, E101D
VL: B1 VL with P96T
notes: also called clone VC1.12.5

Substitutions are numbered along the chain they refer to.

Broadly, the IC50 is the midpoint of a concentration-inhibition curve. Higher therefore signals a need for much substance. Usually Kd stands for a measure of binding affinity in units of concentration. A low value points to higher affinity. By koff is commonly meant a measure of how fast the partners let go of each other. A higher koff goes with a short-lived complex. As a reminder, the kon is the second-order rate constant of association.

For one experiment, the target named is T1, hVEGF-C (human, UniProt P49767).
T1 construct: unlabelled; also called human VEGF-C
T1 sequence (VEGF-C, looked up): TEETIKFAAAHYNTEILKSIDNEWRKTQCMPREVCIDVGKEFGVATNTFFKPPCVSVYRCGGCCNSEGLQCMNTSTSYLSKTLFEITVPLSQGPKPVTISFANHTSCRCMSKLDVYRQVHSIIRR
As to the kind of experiment: phage competition ELISA: phage-displayed clone incubated with increasing soluble hVEGF-C, unbound phage captured on hVEGF-C coated plate, anti-M13-HRP, OD450. In general terms: ELISA stands for enzyme-linked immunosorbent assay.
B1 yielded a 50% inhibitory concentration (IC50) of 32 nM. As for B2, the 50% inhibitory concentration (IC50) came to 2.17 nM.

Regarding B3, the IC50 was determined as 2.64 nM. Regarding B4, the concentration for half-maximal inhibition (IC50) was determined as 2.72 nM.

Another experiment deals with T1, hVEGF-C. The experiment can be described thus: SPR, BIAcore-3000, 25 C: human IgG captured on CM5 chip (about 500 RU), human VEGF-C injected at 12.5-500 nM, 1:1 Langmuir fit. Background: Surface plasmon resonance follows binding to a sensor surface in real time, without labels.
The molecule B1 returned a Kd of 0.97 nM, a koff of 0.000263 s⁻¹ and a kon of 271000 M⁻¹ s⁻¹. B5 showed a Kd of 0.92 nM, a koff of 0.000541 s⁻¹ and a kon of 588000 M⁻¹ s⁻¹. Take B6: binding was characterised by a dissociation constant (Kd) of 0.17 nM, the off-rate (koff) was determined as 0.000189 s⁻¹ and the kon stood at 1.07e+06 M⁻¹ s⁻¹.

The target of a further experiment is T1, hVEGF-C. The experiment can be described thus: phage competition ELISA: phage-displayed clone incubated with increasing soluble hVEGF-C, unbound phage captured on hVEGF-C coated plate, anti-M13-HRP, OD450. This is another data set of the same source.
B1 displayed an IC50 of 32 nM. B5 showed an IC50 of 300 nM. On the same count and under the same terms, the result for B6 reads 38 nM.

A further experiment has as its target T2, biotinylated human VEGF-C (human, UniProt P49767 112-227, limits assumed, biotin conjugated (site not stated)).
T2 construct: Panning used the matured form from R&D Systems; also called biotin conjugated VEGF-C; biotinylated VEGF-C
T2 sequence: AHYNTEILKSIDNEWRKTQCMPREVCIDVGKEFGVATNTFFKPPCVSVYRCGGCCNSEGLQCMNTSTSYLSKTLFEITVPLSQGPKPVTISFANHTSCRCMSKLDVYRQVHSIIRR
As to the kind of experiment: receptor blocking ELISA: fixed biotin-VEGF-C incubated 2 h with serial dilutions of IgG, unbound VEGF-C captured on immobilized VEGFR3-Fc, streptavidin-HRP, OD450; blocked interaction VEGF-C/VEGFR3. The value stands in brackets after the curve's name in the legend box; the quantity is not named on the sheet, the value agrees with the midpoint of the curve.
Molecule B7 came in with an IC50 of 0.74 nM.

The next experiment deals with T1, hVEGF-C. The experiment can be described thus: phage competition ELISA: phage-displayed clone incubated with increasing soluble hVEGF-C, unbound phage captured on hVEGF-C coated plate, anti-M13-HRP, OD450. The source holds these as a separate data set.
As to B8, the 50% inhibitory concentration (IC50) was determined as 5.1 nM. For B6, the IC50 amounted to 21.5 nM. Molecule B9 had a half-maximal inhibitory concentration (IC50) of 25.3 nM. The same measure, in the same setting: the figure for B10 is 40.7 nM; for B11 it is 28 nM; for B12 it is 15.4 nM.

B13 showed a half-maximal inhibitory concentration (IC50) of 20 nM.

Turning to B14, the half-maximal inhibitory concentration (IC50) came to 22.5 nM. As to B15, the half-inhibitory concentration (IC50) is 22.1 nM.

With B16, the IC50 is 27.1 nM. In the case of B17, the half-inhibitory concentration (IC50) turned out to be 17 nM.

The target of a further experiment is T3, mature VEGF-C (R&D Systems) (human, UniProt P49767 103-227).
T3 construct: Bought from R&D Systems; also called human VEGF-C matured form (R&D systems)
T3 sequence: T1 sequence (VEGF-C, looked up)
The experiment can be described thus: SPR, Biacore (Fab), VC4.5 Fab protein; set-up for the Fab not described (paragraph 557 describes captured IgG).
The molecule B18 gave an equilibrium dissociation constant (Kd) of 27.5 nM.

The target of the next experiment is T4, VEGF-C C137S.
T4 construct: also called hVEGF-C C137S; human VEGF-C C137S
T4 VEGF-C: T2 sequence with C26S
The experiment can be described thus: phage competition ELISA as in paragraph 556 with human VEGF-C C137S as antigen: phage-displayed clone, soluble antigen varied, anti-M13-HRP, OD450.
B8 displayed an IC50 of 32.4 nM.

The molecule B19 registered an IC50 of 32.8 nM. On the same count and under the same terms, the figure for B20 is 7.7 nM; for B21 it is 4.8 nM; for B22 it is 7.29 nM. B23 returned an IC50 of 25.9 nM.

B24 yielded an IC50 of 23 nM.

B25 had a half-inhibitory concentration (IC50) of 16.8 nM. Turning to B26, the IC50 came to 13.7 nM. With B27, the half-inhibitory concentration (IC50) was determined as 28.1 nM.
